Earlier results in article PMC2862573.

Target: CCR2 loop-2 peptide (Homo sapiens)

Kd: 22 µM
Substance: MCP-1 (from UniProt P13500)
